T1: synthetic purified T1A peptide
T1 chain: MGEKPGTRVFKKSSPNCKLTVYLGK


What was measured:
[1] = tested on: synthetic purified T1A peptide
[2] = biological target: T1, synthetic purified T1A peptide

Molecule	optimal T1A concentration for JNK3 phosphorylation by MKK7, against full-length arrestin-3 [1]	JNK3 phosphorylation by MKK4 as a function of T1A concentration (in vitro kinase assay, purified proteins) [2]	optimal T1A concentration for JNK3 phosphorylation by MKK4, against full-length arrestin-3 [2]
MKK7 (purified)	in both cases optimal T1A concentrations were ˜10-times lower than those of full-length arrestin-3	–	–
MKK4 (purified) (protein) MAAPSPSGGGGSGGGSGSGTPGPVGSPAPGHPAVSSMQGKRKALKLNFANPPFKSTARFTLNPNPTGVQNPHIERLRTHSIESSGKLKISPEQHWDFTAEDLKDLGEIGRGAYGSVNKMVHKPSGQIMAVKRIRSTVDEKEQKQLLMDLDVVMRSSDCPYIVQFYGALFREGDCWICMELMSTSFDKFYKYVYSVLDDVIPEEILGKITLATVKALNHLKENLKIIHRDIKPSNILLDRSGNIKLCDFGISGQLVDSIAKTRDAGCRPYMAPERIDPSASRQGYDVRSDVWSLGITLYELATGRFPYPKWNSVFDQLTQVVKGDPPQLSNSEEREFSPSFINFVNLCLTKDESKRPKYKELLKHPFILMYEERAVEVACYVCKILDQMPATPSSPMYVD	–	the optimal concentration of T1A for promoting JNK3 phosphorylation by MKK4 is lower than for MKK7-JNK3 module	in both cases optimal T1A concentrations were ˜10-times lower than those of full-length arrestin-3

From patent US20180236026
